3 substances from paper PMC4838342 can be followed below.

One experiment deals with mCherry-LacI-H3 (UniProt P68431). Put plainly: F2H (live cell imaging, recruitment to LacO array). The conditions noted are these: n=20; parent: est. 1.7; read off a plot.
Another experiment deals with MBP H3 116–135 (human). Put plainly: ITC; MicroCal iTC200; sNASP (180, 150, 100 μM) in the syringe injected into MBP H3 116–135 (30, 15, 10 μM) in the cell; 20 mM Hepes-KOH pH 7.5, 200 mM sodium chloride; one-site model. On the technique in general: Isothermal titration calorimetry measures the heat released or taken up as one component is titrated into another.

Consider “EGFP-sNASP (from UniProt P49321-2) E211A; E215A; E217A”, for which the other: enrichment ratio with mCherry-LacI-H3 turned out to be 1.2.

As for “EGFP-sNASP (from UniProt P49321-2) E246A; Y249S; L253S”, the other: enrichment ratio with mCherry-LacI-H3 was 1.1.

One may read the Kd as the free concentration of one partner at which half of the binding sites on the other are occupied at equilibrium, for simple one-to-one binding. Higher therefore signals a looser complex. What is called stoichiometry N is the number of molecules, sites or subunits per partner or assembly. In the experiment with MBP H3 116–135 (human), “sNASP (from UniProt P49321-2 1-449) (natural protein; other documents disagree on this pair)” had a Kd of 47 to 68 nM and a stoichiometry N of 1.
